Measurements published in PMC10135883, “Structural Basis of the Interaction between Human Axin2 and SIAH1 in the Wnt/β-Catenin Signaling Pathway” (Biomolecules, 2023).

Experiments:
[1] = molecular target: SIAH1-SBD (substrate-binding domain of E3 ubiquitin-protein ligase SIAH1, residues 89-282) (human) (UniProt Q8IUQ4); experiment: ITC; ITC200, 25 °C; 20 mM Tris-HCl pH8.0, 100 mM NaCl; 330 μM Axin2 peptide injected into 30 μM SIAH1; single binding site model
[2] = molecular target: SIAH1-SBD (89-282) F165A (human) (UniProt Q8IUQ4); experiment: as above
[3] = molecular target: T1, SIAH1-SBD (substrate-binding domain of E3 ubiquitin-protein ligase SIAH1, residues 89-282) (human, UniProt Q8IUQ4-1 89-282); experiment: crystal structure; SIAH1-SBD mixed with Axin2 (356–376) at a molar ratio of 1:5; 0.1 M Bis-tris propane pH8.4, 24% PEG6000, 4 °C; 2.53 Å; details: both partners purified
T1 construct: Cloned from HeLa cDNA into pET28a with a TEV site at the N-terminal; The PDB code is printed as 8HEO in the results and as 8HE0 in the data availability statement; also called SIAH1-SBD_(89–282); SBD of SIAH1; source: E. coli BL21(DE3), purified (Ni-NTA, His-tag cleavage by TEV, Ni-NTA, HiTrap Q, Superdex 200); not shown: His tag, N-terminal, cleaved
T1 sequence (looked up): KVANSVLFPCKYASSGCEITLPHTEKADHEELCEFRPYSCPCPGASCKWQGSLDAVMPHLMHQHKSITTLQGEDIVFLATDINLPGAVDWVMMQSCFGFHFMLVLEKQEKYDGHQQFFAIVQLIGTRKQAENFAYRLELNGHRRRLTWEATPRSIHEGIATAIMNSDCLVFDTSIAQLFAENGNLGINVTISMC

[4] = molecular target: T2, wt Axin2_(356–368) peptide used in ITC, Q9Y2T1; experiment: ITC; details: chain shown with the change;; parent: 8.77
T2 chain: HRLPKEMTPVEPA

[5] = molecular target: T3, SIAH1-SBD (substrate-binding domain of E3 ubiquitin-protein ligase SIAH1, residues 89-282) (human, UniProt Q8IUQ4-1 89-282); experiment: ITC
T3 chain: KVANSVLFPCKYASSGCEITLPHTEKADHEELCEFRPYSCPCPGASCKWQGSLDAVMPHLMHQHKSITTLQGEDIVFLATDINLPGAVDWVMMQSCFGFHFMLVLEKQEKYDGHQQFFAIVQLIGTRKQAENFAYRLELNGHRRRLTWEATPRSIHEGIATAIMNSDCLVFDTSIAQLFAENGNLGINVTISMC

[6] = molecular target: T1, SIAH1-SBD (substrate-binding domain of …); experiment: BLI; Octet Red96; GST-Axin2-GBD or its deletion loaded onto GST biosensors, quenched with GST; dipped into SIAH1-SBD at 0.03-30 μM; free-GST biosensors as controls; details: both partners purified

In the case of “wt Axin2_(356–368) peptide used in ITC (from UniProt Q9Y2T1 356-368)”, the Kd [1] is reported as 8.77 µM, the stoichiometry N [1] is reported as 1 and the Kd [2] is reported as 14.4 µM.

“Axin2_(356–368) E366A (from UniProt Q9Y2T1 356-368) (peptide)” gave a Kd [1] of 97.1 µM.

B1: Axin2 (residues 356–376) (peptide, UniProt Q9Y2T1 356-376, looked up)
chain: HRLPKEMTPVEPATFAAELIS
notes: human Axin2 (GenBank NM_004655.4), residues 356-376 within the GBD; also called Axin2_(356–376); Axin2 peptide; source: E. coli BL21 (DE3), purified (glutathione sepharose 4B, GST removed by PreScission protease, Superdex 75); not shown: GST, N-terminal, cleaved
B1: binds [3].

B2: SIAH1-SBD (substrate-binding domain of E3 ubiquitin-protein ligase SIAH1, residues 89-282), Q8IUQ4-1 Q159A (protein)
chain: KVANSVLFPCKYASSGCEITLPHTEKADHEELCEFRPYSCPCPGASCKWQGSLDAVMPHLMHQHKSITTLAGEDIVFLATDINLPGAVDWVMMQSCFGFHFMLVLEKQEKYDGHQQFFAIVQLIGTRKQAENFAYRLELNGHRRRLTWEATPRSIHEGIATAIMNSDCLVFDTSIAQLFAENGNLGINVTISMC
Molecule B2 has a Kd [4] of 9.1 µM.

B3: SIAH1-SBD (substrate-binding domain of E3 ubiquitin-protein ligase SIAH1, residues 89-282), Q8IUQ4-1 T156A (protein)
chain: KVANSVLFPCKYASSGCEITLPHTEKADHEELCEFRPYSCPCPGASCKWQGSLDAVMPHLMHQHKSIATLQGEDIVFLATDINLPGAVDWVMMQSCFGFHFMLVLEKQEKYDGHQQFFAIVQLIGTRKQAENFAYRLELNGHRRRLTWEATPRSIHEGIATAIMNSDCLVFDTSIAQLFAENGNLGINVTISMC
In the case of B3, the Kd [4] is reported as 10.5 µM.

Molecule HRLPKEMAPVEPATFAAELIS [Axin2_(356–368) single mutant T363A] has a Kd [5] of 8.7 µM.

B4: GST-Axin2-GBD (GSK3 binding domain of Axin2, residues 334-432, with a GST-tag) (domain or fragment, human, UniProt Q9Y2T1 334-432, looked up)
chain: QREMHRSVKANGQVSLPHFPRTHRLPKEMTPVEPATFAAELISRLEKLKLELESRHSLEERLQQIREDEEREGSELTLNSREGAPTQHPLSLLPSGSYE
notes: pGEX-6p-1 construct; also called Axin-GDB; source: E. coli BL21 (DE3), purified (glutathione sepharose 4B); not shown: GST, N-terminal, kept
B4 was tested, and the Kd [6] was about 2.2 µM.
